We go through 3 substances from patent publication US12068729.

For assay [1], the target named is human activated Factor XII (FXIIa), Enzyme Research Laboratories Cat #1212a (human). The experiment in a line: SPR Biacore, mAb captured by anti-hFc, 25 C.
The target in assay [2] is human Factor XII (FXII), Enzyme Research Laboratories Cat #1212 (human). Briefly: SPR Biacore, mAb captured by anti-hFc, 25 C.
The target of assay [3] is human activated Factor XII (FXIIa), Enzyme Research Laboratories Cat #1212a (human). The experiment in a line: SPR Biacore, mAb captured by anti-hFc, 37 C.
Assay [4] addresses human Factor XII (FXII), Enzyme Research Laboratories Cat #1212 (human). Briefly: SPR Biacore, mAb captured by anti-hFc, 37 C.

In assay [1], “Comparator 1, a monoclonal antibody against human FXII/FXIIa having VH/VL sequences of antibody 3F7 according to U.S. Pat. No. 9,518,127 (CSL Behring GmbH)” gave a 100 nM Ag Bound (RU) of 297 RU, a Kd of 2.54 nM, a koff of 0.000996 s⁻¹ and a kon of 392000 M⁻¹ s⁻¹. Moreover, the t½ in assay [1] was 11.6 min. Moreover, the 100 nM Ag Bound (RU) in assay [2] is 9.5 RU. Besides, in assay [3], the 100 nM Ag Bound (RU) came to 312 RU, the Kd was found to be 8.25 nM, the koff was 0.00515 s⁻¹ and the kon was 624000 M⁻¹ s⁻¹. Besides, the t½ in assay [3] worked out at 2 min. Also, the 100 nM Ag Bound (RU) in assay [4] was 9.9 RU.
With Isotype control (antibody), the 100 nM Ag Bound (RU) in assay [1] is 0.1 RU; in assay [2] it was 10 RU; in assay [3], -2.7 RU; in assay [4], 10.3 RU.
In assay [1], “Comparator 2, a human monoclonal antibody against human FXII having VH/VL sequences of antibody 15H8 according to U.S. Pat. No. 9,574,013 (Vanderbilt Univ./Aronora)” had a 100 nM Ag Bound (RU) of 197 RU, a Kd of 2.93 nM, a koff of 0.00451 s⁻¹ and a kon of 1.54e+06 M⁻¹ s⁻¹. The t½ in assay [1] is 2.6 min. In assay [2], the 100 nM Ag Bound (RU) turned out to be 86.1 RU, the Kd turned out to be 37.3 nM, the koff is 0.00247 s⁻¹ and the kon was found to be 66100 M⁻¹ s⁻¹. In assay [2], this substance yielded a t½ of 4.7 min. Besides, in assay [3], the 100 nM Ag Bound (RU) worked out at 187 RU, the Kd turned out to be 2.76 nM, the koff was found to be 0.02 s⁻¹ and the kon was 7.25e+06 M⁻¹ s⁻¹. The t½ in assay [3] is 1 min. In assay [4], this substance had a 100 nM Ag Bound (RU) of 83.8 RU, a dissociation constant (Kd) of 45.3 nM, a koff of 0.0542 s⁻¹ and a kon of 1.2e+06 M⁻¹ s⁻¹. For the same substance, the t½ in assay [4] worked out at 0 h.
